# Data taken from patent publication US20170073408A1 (Amgen, published 2017).
# Substitutions are numbered along the chain they refer to.
# T1: GDF-11 (UniProt O95390 299-407)
# T1 construct: Bought
# T1 sequence (looked up): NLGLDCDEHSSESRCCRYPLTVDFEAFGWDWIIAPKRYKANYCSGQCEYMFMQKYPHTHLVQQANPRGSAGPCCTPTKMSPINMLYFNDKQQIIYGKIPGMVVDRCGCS
# T2: GDF-8 (UniProt O14793 267-375)
# T2 construct: Bought
# T2 sequence (looked up): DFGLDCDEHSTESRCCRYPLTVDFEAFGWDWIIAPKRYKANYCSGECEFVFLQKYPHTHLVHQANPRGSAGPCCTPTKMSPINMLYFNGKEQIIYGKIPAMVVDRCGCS
# T3: TGF-β-3 (UniProt P10600 301-412)
# T3 construct: Bought
# T3 sequence (looked up): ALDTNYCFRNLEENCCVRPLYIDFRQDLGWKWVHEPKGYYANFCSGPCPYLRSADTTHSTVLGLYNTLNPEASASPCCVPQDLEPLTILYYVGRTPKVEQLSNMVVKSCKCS
# T4: BMP4 (UniProt P12644 293-408)
# T4 construct: Bought
# T4 sequence (looked up): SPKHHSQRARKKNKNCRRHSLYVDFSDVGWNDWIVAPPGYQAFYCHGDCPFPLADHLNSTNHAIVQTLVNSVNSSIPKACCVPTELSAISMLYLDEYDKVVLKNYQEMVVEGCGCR
# T5: activin B (UniProt P09529 293-407)
# T5 construct: Bought (R & D Systems)
# T5 sequence (looked up): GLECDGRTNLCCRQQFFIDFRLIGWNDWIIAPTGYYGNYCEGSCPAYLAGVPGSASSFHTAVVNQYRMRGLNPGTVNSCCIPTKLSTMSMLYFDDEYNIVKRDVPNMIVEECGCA
# T6: A/B13-39
# T6 construct: also called Activin A 13/39 B
# T6 activin A/B chimeric subunit: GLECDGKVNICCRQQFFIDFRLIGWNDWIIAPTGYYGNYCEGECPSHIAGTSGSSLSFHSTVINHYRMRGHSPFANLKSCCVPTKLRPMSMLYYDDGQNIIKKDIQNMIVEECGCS
# B1: anti-activin A monoclonal antibody A1 (antibody, human IgG2, lambda, V domains shown)
# VH: QVQLVQSGAEVKKPGASVKVSCKASGYTFTSYGLSWVRQAPGQGLEWMGWIIPYNGNTNSAQKLQGRVTMTTDTSTSTAYMELRSLRSDDTAVYFCARDRDYGVNYDAFDIWGQGTMVTVSS
# VL: not shown
# notes: Fully human antibody from XenoMouse hybridoma (strains giving IgG2 kappa or IgG4 kappa); also called L1H1; Mab A1
# B2: recombinant human activin A (mature) (ligand)
# chain: T6 activin A/B chimeric subunit with R13K, Q14K, I18V, D19S, R21K, L22D, T33S, Y36H, G37A
# notes: also called r-HuActivin A; rhActivin A
# Columns and labels:
# [1] = molecular target: B2; experiment: BIAcore blocking assay, 1 nM activin A; competitor rhActivin RIIB/Fc chimera on chip
# Method: (§1) Blocking assays were conducted on immobilized recombinant human activin RIB-Fc chimera surfaces, recombinant human activin RIIB-Fc chimera surfaces, and recombinant human RIIA-Fc chimera recombinant surfaces, as described in Example 5. Monoclonal antibodies A1, A2, AKA1, and AKA2 on each chimera surface were incubated with 1 nM activin A, and the relative binding response (%) was measured.
# [2] = molecular target: B2; experiment: BIAcore blocking assay, 1 nM activin A; competitor rhActivin RIIA/Fc chimera on chip
# Method: as §1
# [3] = molecular target: B2; experiment: cell-based or functional assay
# TGF-β-1 = molecular target: T7, TGF-β-1 (UniProt P01137 279-390); experiment: BIAcore, antibody pre-incubated with ligand, ActRIIB/Fc on chip
# T7 construct: Bought
# Method: (§2) These assays were performed using BlAcore® technology, to determine the selectivity of binding of antibodies A1, A2 and A3 to various activins and other TGF-β family members, including activin A, activin B, activin AB, inhibin A, GDF-8, GDF-11, TGF-β-1, TGF-β-3, and BMP4 (all from R & D Systems). […] Because BlAcore assays detect changes in the refractive index, the difference between the response detected with injection over the immobilized receptor surfaces compared with the response detected with injection over the control surface in the absence of any antibody represents the actual binding of the various ligands to the receptor. With pre-incubation of antibodies and activin and TGF-β molecules, a change (increase or decrease) in binding response indicates antibody binding to the TGFβ family of molecules. The antibodies all bound to activin A but not to activin B, GDF-8, GDF-11, TGF-β-1, TGF-β-3, and BMP4, thus indicating specificity for activin A.
# GDF-11 = molecular target: T1, GDF-11; experiment: as above
# Method: as §2
# GDF-8 = molecular target: T2, GDF-8; experiment: as above
# Method: as §2
# TGF-β-3 = molecular target: T3, TGF-β-3; experiment: as above
# Method: as §2
# BMP4 = molecular target: T4, BMP4; experiment: as above
# Method: as §2
# [4] = molecular target: B2; experiment: Biacore blocking: 1 nM Activin A + antibody over rhActRIB-Fc chimera surface. No unit in the drawn table; M by Table 7, which prints this value rounded as 0.29 nM
# activin B = molecular target: T5, activin B; experiment: affinity analysis of Example 15 (antibody immobilized on a surface)
# [5] = molecular target: B2; experiment: affinity analysis of Example 15 (method of the KD not given)
# [6] = molecular target: B2; experiment: BIAcore blocking assay, 1 nM activin A; competitor rhActivin RIB/Fc chimera on chip
# Method: as §1
# A/B13-39 = molecular target: T6, A/B13-39; experiment: Biacore blocking: 100 nM antibody + diluted conditioned medium (CM) of the ligand over ActRIB-Fc surface
# [7] = molecular target: B1; experiment: KinExA solution equilibrium, antibody A1 (A52) fixed at 100 pM
# Method: (§3) Solution-based equilibrium-binding assays using KinExA™ technology (Sapidyne Instruments, Inc.) were used to determine the dissociation equilibrium (KD) of activin A binding to antibody molecules. This solution-based assay is considered to be more sensitive than the BIAcore assay in some instances. Reacti-Gel™ 6× was pre-coated with about 50 μg/ml activin A overnight, and then blocked with BSA. 30 pM and 100 pM of antibody samples were incubated with various concentrations (0.5 pM to 5 nM) of activin A in sample buffer at room temperature for 8 hours before being run through the activin A-coated beads. The amount of the bead-bound antibody was quantified by fluorescent (Cy5) labeled goat anti-human-Fc antibody at 1 mg/ml in superblock. The binding signal was proportional to the concentration of free antibody at equilibrium with a given activin A concentration. KD was obtained from the nonlinear regression of the competition curves using a dual-curve one-site homogeneous binding model provided in the KinEx ATM software (Sapidyne Instruments, Inc.). […] A2 and A3 bound to activin A at ˜15 pM and ˜8 pM, respectively.
# [8] = molecular target: T8, anti-activin A monoclonal antibody A2; experiment: KinExA solution equilibrium, antibody A2 (A30) fixed at 100 pM
# T8 construct: Fully human antibody from XenoMouse hybridoma; also called L2H2
# Method: as §3
# [9] = molecular target: T8, anti-activin A monoclonal antibody A2; experiment: KinExA solution equilibrium, antibody A2 (A30) fixed at 30 pM
# Method: as §3
# A31-2 [10] = molecular target: T9, A31-2; experiment: KinExA solution equilibrium, antibody A31 fixed at 100 pM
# T9 construct: bars A52-1, A31-2, A30-2) make A3 likely; not assigned here
# Method: as §3
# A31-2 [11] = molecular target: T9, A31-2; experiment: KinExA solution equilibrium, antibody A31 fixed at 30 pM
# Method: as §3
# [12] = molecular target: B1; experiment: KinExA solution equilibrium, antibody A1 (A52) fixed at 30 pM
# Method: as §3
# T8 sequence (VH, as listed by the source, chain 1 of 2): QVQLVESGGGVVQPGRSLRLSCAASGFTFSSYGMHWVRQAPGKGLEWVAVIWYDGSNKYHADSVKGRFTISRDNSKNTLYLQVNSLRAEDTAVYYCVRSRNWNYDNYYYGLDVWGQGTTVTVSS
# T8 sequence (VL, as listed by the source, chain 2 of 2): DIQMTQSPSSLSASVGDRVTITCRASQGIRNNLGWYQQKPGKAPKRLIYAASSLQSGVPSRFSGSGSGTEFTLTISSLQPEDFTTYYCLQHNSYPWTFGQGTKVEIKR
# T7 sequence (P01137 279-390 limits assumed): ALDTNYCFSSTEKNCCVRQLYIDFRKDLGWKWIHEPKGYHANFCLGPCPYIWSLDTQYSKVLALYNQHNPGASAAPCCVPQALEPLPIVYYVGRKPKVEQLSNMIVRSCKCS
Binder,EC50 [1] [nM],EC50 [2] [nM],"Cell IC50 (nM); luciferase activity of C2C12/pMARE reporter cells, activin A fixed at 4 nM [3] [nM]",binding result (TGF-β-1),binding result (GDF-11),binding result (GDF-8),binding result (TGF-β-3),binding result (BMP4),EC50 [4] [nM],binding result (activin B),Kd [5] [nM],EC50 [6] [nM],binding result (A/B13-39),IC50 (read off the curve) [7] [nM],IC50 (read off the curve) [8] [nM],IC50 (read off the curve) [9] [nM],IC50 (read off the curve) (A31-2 [10]) [nM],IC50 (read off the curve) (A31-2 [11]) [nM],IC50 (read off the curve) [12] [nM]
B1,0.29,0.29,< 3,no binding,no binding,no binding,no binding,no binding,0.29,no binding,~0.003,0.29,no binding (tested: 100 nM),,,,,,
B2,,,,,,,,,,,,,,~0.07,~0.1,~0.04,~0.08,~0.03,~0.02
